# Source: patent publication US20120316071A1
# Key:
# [1] = biological target: rHuman EGF R/Fc Chimera, CF (R&D Systems Cat#344-ER) (human) (UniProt P00533); test: ECL multispot (MSD) assay, antigen spotted on plate, 20 nM Fab
# [2] = biological target: rHuman CD44/Fc Chimera, CF (R&D Systems Cat#3660-CD) (human) (UniProt P16070); test: as above
# [3] = biological target: rHuman IGF-1 sR, CF (R&D Systems Cat#391-GR) (human) (UniProt P08069); test: as above
# [4] = biological target: rHuman P-Cadherin/Fc Chimera, CF (R&D Systems Cat#861-PC) (human) (UniProt P22223); test: as above
# [5] = biological target: rHuman Notch-1/Fc Chimera, CF (R&D Systems Cat#3647-TK) (human) (UniProt P46531); test: as above
# [6] = biological target: Recombinant Human DLL4 (R&D Systems Cat#1506-D4/CF) (human) (UniProt Q9NR61); test: as above
# [7] = biological target: rHuman HGF R/c-MET/Fc Chimera, CF (R&D Systems Cat#358-MT/CF) (human) (UniProt P08581); test: ECL Multispot (MSD), antigen spotted, Fab
# [8] = biological target: rHuman IGF-1 sR, CF (R&D Systems Cat#391-GR) (human) (UniProt P08069); test: ECL Multispot (MSD), antigen spotted, Fab
# [9] = biological target: rHuman Erythropoietin R/Fc Chimera, CF (R&D Systems Cat#963-ER) (human) (UniProt P19235); test: ECL Multispot (MSD), antigen spotted, Fab
# [10] = biological target: rHuman P-Cadherin/Fc Chimera, CF (R&D Systems Cat#861-PC) (human) (UniProt P22223); test: ECL Multispot (MSD), antigen spotted, Fab
# [11] = biological target: rHuman Notch-1/Fc Chimera, CF (R&D Systems Cat#3647-TK) (human) (UniProt P46531); test: ECL Multispot (MSD), antigen spotted, Fab
# [12] = biological target: Recombinant Human DLL4 (R&D Systems Cat#1506-D4/CF) (human) (UniProt Q9NR61); test: ECL Multispot (MSD), antigen spotted, Fab
# [13] = biological target: rHuman ErbB2/Fc Chimera, CF (R&D Systems Cat#1129-ER) (human) (UniProt P04626); test: ECL Multispot (MSD), antigen spotted, Fab
# [14] = biological target: rHuman ErbB2/Fc Chimera, CF (R&D Systems Cat#1129-ER) (human) (UniProt P04626); test: Multispot ECL (MSD) assay, antigen spotted on plate, Fab at […]; blank spot 751
# [15] = biological target: rHuman ErbB2/Fc Chimera, CF (R&D Systems Cat#1129-ER) (human) (UniProt P04626); test: Multispot ECL (MSD) assay, antigen spotted on plate, Fab at […]; blank spot 2945
# [16] = biological target: rHuman ErbB2/Fc Chimera, CF (R&D Systems Cat#1129-ER) (human) (UniProt P04626); test: Multispot ECL (MSD) assay, antigen spotted on plate, Fab at 0.096 µM; blank spot 917
# [17] = biological target: rHuman HGF R/c-MET/Fc Chimera, CF (R&D Systems Cat#358-MT/CF) (human) (UniProt P08581); test: MSD multispot ECL, antigen spotted on plate; Fab 0.2975 uM; blank spot 5019
# [18] = biological target: rHuman IGF-1 sR, CF (R&D Systems Cat#391-GR) (human) (UniProt P08069); test: as above
# [19] = biological target: rHuman ErbB2/Fc Chimera, CF (R&D Systems Cat#1129-ER) (human) (UniProt P04626); test: as above
# [20] = biological target: rHuman HGF R/c-MET/Fc Chimera, CF (R&D Systems Cat#358-MT/CF) (human) (UniProt P08581); test: MSD multispot ECL, antigen spotted on plate; Fab 0.07438 uM; blank spot 2504
# [21] = biological target: rHuman IGF-1 sR, CF (R&D Systems Cat#391-GR) (human) (UniProt P08069); test: as above
# [22] = biological target: rHuman ErbB2/Fc Chimera, CF (R&D Systems Cat#1129-ER) (human) (UniProt P04626); test: as above
# [23] = biological target: rHuman HGF R/c-MET/Fc Chimera, CF (R&D Systems Cat#358-MT/CF) (human) (UniProt P08581); test: MSD multispot ECL, antigen spotted on plate; Fab 0.01859 uM; blank spot 1776
# [24] = biological target: rHuman IGF-1 sR, CF (R&D Systems Cat#391-GR) (human) (UniProt P08069); test: as above
# [25] = biological target: rHuman ErbB2/Fc Chimera, CF (R&D Systems Cat#1129-ER) (human) (UniProt P04626); test: as above
# [26] = biological target: rHuman HGF R/c-MET/Fc Chimera, CF (R&D Systems Cat#358-MT/CF) (human) (UniProt P08581); test: MSD multispot ECL, antigen spotted on plate; Fab 1.19 uM; blank spot 24999
# [27] = biological target: rHuman IGF-1 sR, CF (R&D Systems Cat#391-GR) (human) (UniProt P08069); test: as above
# [28] = biological target: rHuman ErbB2/Fc Chimera, CF (R&D Systems Cat#1129-ER) (human) (UniProt P04626); test: as above
# [29] = biological target: rHuman EGF R/Fc Chimera, CF (R&D Systems Cat#344-ER) (human) (UniProt P00533); test: ECL multispot (MSD), antigen spotted, Fab in solution
# [30] = biological target: rHuman CD44/Fc Chimera, CF (R&D Systems Cat#3660-CD) (human) (UniProt P16070); test: as above
# [31] = biological target: rHuman HGF R/c-MET/Fc Chimera, CF (R&D Systems Cat#358-MT/CF) (human) (UniProt P08581); test: as above
# [32] = biological target: rHuman IGF-1 sR, CF (R&D Systems Cat#391-GR) (human) (UniProt P08069); test: as above
# [33] = biological target: rHuman Erythropoietin R/Fc Chimera, CF (R&D Systems Cat#963-ER) (human) (UniProt P19235); test: as above
# [34] = biological target: rHuman P-Cadherin/Fc Chimera, CF (R&D Systems Cat#861-PC) (human) (UniProt P22223); test: as above
# [35] = biological target: rHuman Notch-1/Fc Chimera, CF (R&D Systems Cat#3647-TK) (human) (UniProt P46531); test: as above
# [36] = biological target: Recombinant Human DLL4 (R&D Systems Cat#1506-D4/CF) (human) (UniProt Q9NR61); test: as above
# [37] = biological target: rHuman ErbB2/Fc Chimera, CF (R&D Systems Cat#1129-ER) (human) (UniProt P04626); test: as above
# [38] = biological target: rHuman EGF R/Fc Chimera, CF (R&D Systems Cat#344-ER) (human) (UniProt P00533); test: ECL Multispot (MSD), antigen spotted, Fab
# [39] = biological target: rHuman CD44/Fc Chimera, CF (R&D Systems Cat#3660-CD) (human) (UniProt P16070); test: ECL Multispot (MSD), antigen spotted, Fab
# [40] = biological target: rHuman P-Cadherin/Fc Chimera, CF (R&D Systems Cat#861-PC) (human) (UniProt P22223); test: Multispot ECL (MSD), antigen spotted on plate, Fab […]; blank spot 6344
# [41] = biological target: Recombinant Human DLL4 (R&D Systems Cat#1506-D4/CF) (human) (UniProt Q9NR61); test: as above
# [42] = biological target: rHuman ErbB2/Fc Chimera, CF (R&D Systems Cat#1129-ER) (human) (UniProt P04626); test: as above
# [43] = biological target: rHuman P-Cadherin/Fc Chimera, CF (R&D Systems Cat#861-PC) (human) (UniProt P22223); test: Multispot ECL (MSD), antigen spotted on plate, Fab 0.00391 uM; blank spot 576
# [44] = biological target: Recombinant Human DLL4 (R&D Systems Cat#1506-D4/CF) (human) (UniProt Q9NR61); test: as above
# [45] = biological target: rHuman ErbB2/Fc Chimera, CF (R&D Systems Cat#1129-ER) (human) (UniProt P04626); test: as above
# [46] = biological target: rHuman P-Cadherin/Fc Chimera, CF (R&D Systems Cat#861-PC) (human) (UniProt P22223); test: Multispot ECL (MSD), antigen spotted on plate, Fab 0.0625 uM; blank spot 1738
# [47] = biological target: Recombinant Human DLL4 (R&D Systems Cat#1506-D4/CF) (human) (UniProt Q9NR61); test: as above
# [48] = biological target: rHuman ErbB2/Fc Chimera, CF (R&D Systems Cat#1129-ER) (human) (UniProt P04626); test: as above
# [49] = biological target: rHuman P-Cadherin/Fc Chimera, CF (R&D Systems Cat#861-PC) (human) (UniProt P22223); test: Multispot ECL (MSD), antigen spotted on plate, Fab 0.01563 uM; blank spot 906
# [50] = biological target: Recombinant Human DLL4 (R&D Systems Cat#1506-D4/CF) (human) (UniProt Q9NR61); test: as above
# [51] = biological target: rHuman ErbB2/Fc Chimera, CF (R&D Systems Cat#1129-ER) (human) (UniProt P04626); test: as above
substance,measurement,setting,value
Fab VH3-23_IGHD2-21*01>3_IGHJ6*01 H100E/S108P V64A & V2-13_IGLJ2*01,ECL signal/blank ratio (read-out not given),[1],9.1
same,ECL signal/blank ratio (read-out not given),[2],2.2
same,ECL signal/blank ratio (read-out not given),[3],1.2
same,ECL signal/blank ratio (read-out not given),[4],30.6
same,ECL signal/blank ratio (read-out not given),[5],3
same,ECL signal/blank ratio (read-out not given),[6],2.7
Fab VH3-23_IGHD3-10*01>3_IGHJ6*01 Y112A & O12_IGKJ1*01,ECL signal/blank ratio,[7],0.8
same,ECL signal/blank ratio,[8],1.4
same,ECL signal/blank ratio,[9],1.6
same,ECL signal/blank ratio,[10],1.1
same,ECL signal/blank ratio,[11],1.1
same,ECL signal/blank ratio,[12],1.2
same,ECL signal/blank ratio,[13],1.3
Fab VH1-46_IGHD6-13*01_IGHJ4*01 & A27_IGKJ1*01,ECL signal,[14],2310
same,ECL signal,[15],11300
same,ECL signal,[16],3360
Fab VH1-46_IGHD6-13*01_IGHJ4*01 & L2_IGKJ1*01,ECL signal,[17],17400
same,ECL signal,[18],17400
same,ECL signal,[19],15100
same,ECL signal,[20],6610
same,ECL signal,[21],5800
same,ECL signal,[22],7550
same,ECL signal,[23],4570
same,ECL signal,[24],3780
same,ECL signal,[25],5530
same,ECL signal,[26],45500
same,ECL signal,[27],35200
same,ECL signal,[28],38400
Fab VH3-23_IGHD3-10*01>3_IGHJ6*01 Y112V & O12_IGKJ1*01,ECL signal/blank ratio,[29],1.2
same,ECL signal/blank ratio,[30],1
same,ECL signal/blank ratio,[31],1.3
same,ECL signal/blank ratio,[32],0.8
same,ECL signal/blank ratio,[33],4.3
same,ECL signal/blank ratio,[34],9.8
same,ECL signal/blank ratio,[35],1.4
same,ECL signal/blank ratio,[36],2
same,ECL signal/blank ratio,[37],1.6
Fab VH3-23_IGHD3-10*01>3_IGHJ6*01 Y112G & O12_IGKJ1*01,ECL signal/blank ratio,[38],2.1
same,ECL signal/blank ratio,[39],2.5
same,ECL signal/blank ratio,[7],2.3
same,ECL signal/blank ratio,[8],2.3
same,ECL signal/blank ratio,[9],1.6
same,ECL signal/blank ratio,[10],1.4
same,ECL signal/blank ratio,[11],3.3
same,ECL signal/blank ratio,[12],2.2
Fab VH1-46_IGHD2-15*01_IGHJ2*01 & L2_IGKJ1*01,ECL signal,[40],25500
same,ECL signal,[41],27700
same,ECL signal,[42],29600
same,ECL signal,[43],1960
same,ECL signal,[44],1550
same,ECL signal,[45],1670
same,ECL signal,[46],7740
same,ECL signal,[47],8050
same,ECL signal,[48],9030
same,ECL signal,[49],4940
same,ECL signal,[50],4020
same,ECL signal,[51],4500
